Data on three substances can be found in PMC9975939.

For test [1], the target named is FIP200-GFP. The test can be described thus: bead recruitment assay (confocal imaging of FIP200-GFP on beads). As to conditions: glutathione Sepharose beads coated with GST-4xUb, incubated with untagged NDP52 and FIP200-GFP; read off a plot.
Test [2] deals with His-Flag-NDP52 C18, 153, 163, 321S (human) (UniProt Q13137). The test can be described thus: native gel or EMSA; blue native PAGE of lysates (30 μg; 20 mM Bis-Tris pH 7.2, 40 mM NaCl, 10% glycerol, 0.5% NP-40) of HeLa PentaKO cells stably expressing NDP52 WT or Mut, immunoblot. On the technique in general: A gel shift assay detects complexes by their altered migration in electrophoresis.

In test [3] the target is untagged NDP52 C18, 153, 163, 321S mutant (human) (UniProt Q13137). The test can be described thus: native gel or EMSA; blue native PAGE (4–16% NativePAGE gel, Coomassie G-250) of recombinant NDP52 WT and Mut, immunoblot.

Take “untagged NDP52 wild type mutant C18S; C153S; C163S; C321S [human] / FIP200-GFP [not stated] chain 1 C18S, chain 1 C153S, chain 1 C163S, chain 1 C321S”: the percent of parent in test [1] turned out to be 93%.
“His-Flag-NDP52 C18, 153, 163, 321S (from UniProt Q13137 1-446) (natural protein)” registered a stoichiometry N in test [2] of 2.
“untagged NDP52 C18, 153, 163, 321S mutant (from UniProt Q13137 1-446) (natural protein)”: the stoichiometry N in test [3] was 2.

By stoichiometry N is commonly meant the number of molecules, sites or subunits per partner or assembly.
